Laboratory results as given in patent US8236753 (BRIGHAM AND WOMEN S HOSPITAL, dated 2012).
Positions count from the first letter of the chain named. Numbers in names are those of the source.

B1: wild-type RAP-D3 (third domain of the receptor-associated protein, residues 216-323) (ligand, human)
chain: GAEFEEPRVIDLWDLAQSANLTDKELEAFREELKHFEAKIEKHNHYQKQLEIAHEKLRHAESVGDGERVSRSREKHALLEGRTKELGYTVKKHLQDLSGRISRARHNEL
notes: range 216-323; Expressed in E. coli as a GST fusion, released by TEV protease, monomer isolated by size exclusion; The range 216-323 counts on the mature RAP protein, not on the precursor; also called RAP-D3 WT; RAPD3_WT
B2: RAP-D3 [H257F/H259F] (ligand)
chain: B1 chain with H43F, H45F
notes: The entry is printed as ENLYFQG followed by the 108 residues; also called RAPD3_H257, 259F; RAP-D3 H257,259F
B3: RAP-D3 [H268F/H290F] (ligand)
chain: B1 chain with H54F, H76F
notes: also called RAPD3_H268, 290F
B4: LA3-4 module pair of the LDLR (LDL receptor type-A repeats 3 and 4) (receptor)
chain: not shown
notes: domain: LA3-4 module pair; also called two-repeat fragment of the LDL receptor; LA3-4 repeat pair
B5: RAP-D3-quad (RAP-D3 H257F/H259F/H268F/H290F) (ligand)
chain: B1 chain with H43F, H45F, H54F, H76F
notes: also called RAP-D3 Quad H:F; RAPD3_H257, 259, 268, 290F

Tests used:
[1] = target: B4; assay: ITC, RAP-D3 titrated into LA3-4, 20 mM HEPES pH 7.3, 5 mM CaCl2, 25 C, 50 mM NaCl; set-up: ΔH: unit not given here
Method: (§1) RAP-D3 titrations were performed in 20 mM HEPES, pH 7.3, 50-150 mM NaCl, 5 mM CaCl_2 at 25° C. using a VP-ITC calorimeter (MicroCal Inc., Northampton, Mass.) in a 1.3 mL reaction vessel. A RAP-D3 stock solution (132-178 μM) was added in 6-8 μL increments to LA3-4 (20-25 μM). Calorim-

[2] = target: B4; assay: ITC, RAP-D3 titrated into LA3-4, 20 mM HEPES pH 7.3, 5 mM CaCl2, 25 C, 150 mM NaCl; set-up: ΔH: unit not given here
Method: as §1

[3] = target: B4; assay: ITC at neutral pH
Method: as §1

[4] = target: B1; assay: ITC, RAP-D3 titrated into LA3-4, 20 mM HEPES pH 7.3, 5 mM CaCl2, 25 C, 50 mM NaCl; set-up: ΔH: unit not given here
Method: as §1

[5] = target: B1; assay: ITC, RAP-D3 titrated into LA3-4, 20 mM HEPES pH 7.3, 5 mM CaCl2, 25 C, 150 mM NaCl; set-up: ΔH: unit not given here
Method: as §1

[6] = target: B4; assay: ITC, RAP-D3 titrated into LA3-4, 20 mM HEPES pH 7.3, 5 mM CaCl2, 25 C, 100 mM NaCl; 100 mM NaCl
Method: as §1

[7] = target: B4; assay: ITC, RAP-D3 titrated into LA3-4, 20 mM HEPES pH 7.3, 5 mM CaCl2, 25 C, 100 mM NaCl; set-up: ΔH: unit not given here
Method: as §1

| ΔH [1] | Kd [1] [nM] | fold difference in affinity against wild-type RAP-D3 [3] [fold] | Binder | further results |
| --- | --- | --- | --- | --- |
| -9.1 |  |  | B1 | ΔH [2]: -6.8 |
| -8.6 | 850 | ≤ 2 | B2 |  |
| -9.3 | 1160 | ≤ 2 | B3 |  |
|  |  |  | B4 | Kd [4]: 480 nM; Kd [5]: 1170 nM |
|  |  | ≤ 2 | B5 | Ka [6]: 1.2e+06 M⁻¹; Kd [7]: 850 nM; ΔH [7]: -5.4 |
